US20040054158A1

Legend:
[1] = molecular target: B7 molecules on WEHI 231 cells (B7-1 and B7-2); test: flow cytometry, titered staining of WEHI 231 cells
[2] = molecular target: B7 molecules on WEHI 231 cells (B7-1 and B7-2); test: flow cytometry, titered staining of WEHI 231 cells; estimate from detectable concentrations

Chain of mCTLA4-mIgG2am (P09793 36-161): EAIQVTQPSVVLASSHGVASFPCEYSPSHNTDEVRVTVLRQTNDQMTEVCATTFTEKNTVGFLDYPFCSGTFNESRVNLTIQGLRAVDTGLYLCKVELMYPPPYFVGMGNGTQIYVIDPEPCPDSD

## mCTLA4-mIgG2am (from UniProt P09793 36-161) (Fc fusion)
[1]
  concentration at which staining was clearly detectable: 8 ng/mL
[2]
  fold greater binding affinity than mICOS-mIgG2am binding to GL50 on WEHI cells: > 100 fold
